From paper PMC3093405, “A Motif Unique to the Human Dead-Box Protein DDX3 Is Important for Nucleic Acid Binding, ATP Hydrolysis, RNA/DNA Unwinding and HIV-1 Replication” (PLoS ONE, 2011) come the findings set out here.

One series addresses DDX3wt (Homo sapiens) (UniProt O00571). Put plainly: filter binding. The conditions noted are these: no ATP hydrolysis; 3 mM Mg2+; 50 µg/ml salmon sperm DNA; EMSA: on ice, protein buffer 25 mM Tris-HCl pH 7.5, 0.5 mM DTT, 20% glycerol, 100 mM NaCl plus 5x binding buffer (10% glycerol, 5 mM MgCl2, 2.5 mM EDTA pH 8 …).
The target of series [1] is DDX3ΔINS del250-259 (Homo sapiens) (UniProt O00571). Put plainly: filter binding. Conditions: no ATP hydrolysis; 3 mM Mg2+; 50 µg/ml salmon sperm DNA; EMSA: on ice, protein buffer 25 mM Tris-HCl pH 7.5, 0.5 mM DTT, 20% glycerol, 100 mM NaCl plus 5x binding buffer (10% glycerol, 5 mM MgCl2, 2.5 mM EDTA pH 8 …).
Sequence of DDX3ΔINS del250-259 (Homo sapiens) (O00571 other isoform, or with tags, fused parts or gaps mutant): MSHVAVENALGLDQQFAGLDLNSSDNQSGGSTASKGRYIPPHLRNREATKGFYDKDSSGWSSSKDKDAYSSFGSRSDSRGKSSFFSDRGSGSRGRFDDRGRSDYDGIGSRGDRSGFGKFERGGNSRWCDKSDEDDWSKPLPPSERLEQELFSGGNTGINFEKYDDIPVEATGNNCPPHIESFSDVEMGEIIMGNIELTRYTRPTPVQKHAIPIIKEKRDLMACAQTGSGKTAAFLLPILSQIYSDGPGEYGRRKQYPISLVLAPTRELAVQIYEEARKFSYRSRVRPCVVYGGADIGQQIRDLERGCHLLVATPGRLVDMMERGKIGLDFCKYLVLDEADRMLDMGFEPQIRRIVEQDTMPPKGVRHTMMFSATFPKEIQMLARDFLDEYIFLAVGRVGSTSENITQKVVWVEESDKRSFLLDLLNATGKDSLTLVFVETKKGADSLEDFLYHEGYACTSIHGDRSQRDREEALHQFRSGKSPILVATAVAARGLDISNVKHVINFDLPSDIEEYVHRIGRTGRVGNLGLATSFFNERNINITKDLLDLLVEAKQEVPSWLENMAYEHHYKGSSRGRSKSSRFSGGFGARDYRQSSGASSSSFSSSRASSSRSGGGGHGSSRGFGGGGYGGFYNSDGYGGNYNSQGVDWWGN

Sequence of DDX3wt (Homo sapiens) (O00571 whole entry): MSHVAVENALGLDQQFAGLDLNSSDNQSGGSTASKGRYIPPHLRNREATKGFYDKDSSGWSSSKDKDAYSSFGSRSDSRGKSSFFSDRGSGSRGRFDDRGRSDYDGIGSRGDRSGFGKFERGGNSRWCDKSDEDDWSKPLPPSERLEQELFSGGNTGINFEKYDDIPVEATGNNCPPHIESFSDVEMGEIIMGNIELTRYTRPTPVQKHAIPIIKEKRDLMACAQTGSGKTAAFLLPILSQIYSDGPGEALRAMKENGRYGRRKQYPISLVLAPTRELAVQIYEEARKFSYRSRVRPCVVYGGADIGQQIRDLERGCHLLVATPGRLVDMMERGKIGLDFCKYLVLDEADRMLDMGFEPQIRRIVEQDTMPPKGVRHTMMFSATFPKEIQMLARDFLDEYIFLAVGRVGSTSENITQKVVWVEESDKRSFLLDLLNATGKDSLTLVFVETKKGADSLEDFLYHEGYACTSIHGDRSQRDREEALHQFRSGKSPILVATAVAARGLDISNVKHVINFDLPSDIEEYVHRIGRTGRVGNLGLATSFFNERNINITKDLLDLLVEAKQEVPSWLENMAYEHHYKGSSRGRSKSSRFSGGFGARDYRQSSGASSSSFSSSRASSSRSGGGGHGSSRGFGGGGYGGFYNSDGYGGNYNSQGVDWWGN

In the case of 18/36mer dsDNA, the binding signal (fold (reference affinity)) with DDX3wt (Homo sapiens) turned out to be 1. Also, in series [1], the binding signal (fold reduced affinity vs DDX3wt) was found to be 2.1.
